Test results published in patent US9835633.

B1: endogenous PCSK1 of NSE-apoE4 mouse neurons/brain (protein)
chain: SVQKDSALDLFNDPMWNQQWYLQDTRMTAALPKLDLHVIPVWEKGITGKGVVITVLDDGLEWNHTDIYANYDPEASYDFNDNDHDPFPRYDLTNENKHGTRCAGEIAMQANNHKCGVGVAYNSKVGGIRMLDGIVTDAIEASSIGFNPGHVDIYSASWGPNDDGKTVEGPGRLAQKAFEYGVKQGRQGKGSIFVWASGNGGRQGDNCDCDGYTDSIYTISISSASQQGLSPWYAEKCSSTLATSYSSGDYTDQRITSADLHNDCTETHTGTSASAPLAAGIFALALEANPNLTWRDMQHLVVWTSEYDPLASNPGWKKNGAGLMVNSRFGFGLLNAKALVDLADPRTWRNVPEKKECVVKDNNFEPRALKANGEVIVEIPTRACEGQENAIKSLEHVQFEATIEYSRRGDLHVTLTSAVGTSTVLLAERERDTSPNGFKNWDFMSVHTWGENPVGTWTLKITDMSGRMQNEGRIVNWKLILHGTSSQPEHMKQPRVYTSYNTVQNDRRGVEKMVNVVEKRPTQKSLNGNLLVPKNSSSSNVEGRRDEQVQGTPSKAMLRLLQSAFSKNALSKQSPKKSPSAKLSIPYESFYEALEKLNKPSKLEGSEDSLYSDYVDVFYNTKPYKHRDDRLLQALMDILNEEN
B2: endogenous PCSK2 of NSE-apoE4 mouse neurons/brain (protein)
chain: GYRDINEIDINMNDPLFTKQWYLFNTGQADGTPGLDLNVAEAWELGYTGKGVTIGIMDDGIDYLHPDLAYNYNADASYDFSSNDPYPYPRYTDDWFNSHGTRCAGEVSAAASNNICGVGVAYNSKVAGIRMLDQPFMTDIIEASSISHMPQLIDIYSASWGPTDNGKTVDGPRELTLQAMADGVNKGRGGKGSIYVWASGDGGSYDDCNCDGYASSMWTISINSAINDGRTALYDESCSSTLASTFSNGRKRNPEAGVATTDLYGNCTLRHSGTSAAAPEAAGVFALALEANLDLTWRDMQHLTVLTSKRNQLHDEVHQWRRNGVGLEFNHLFGYGVLDAGAMVKMAKDWKTVPERFHCVGGSVQNPEKIPPTGKLVLTLKTNACEGKENFVRYLEHVQAVITVNATRRGDLNINMTSPMGTKSILLSRRPRDDDSKVGFDKWPFMTTHTWGEDARGTWTLELGFVGSAPQKGLLKEWTLMLHGTQSAPYIDQVVRDYQSKLAMSKKQELEEELDEAVERSLQSILRKN

Target: human apolipoprotein E4
Sequence (chain, as listed by the source): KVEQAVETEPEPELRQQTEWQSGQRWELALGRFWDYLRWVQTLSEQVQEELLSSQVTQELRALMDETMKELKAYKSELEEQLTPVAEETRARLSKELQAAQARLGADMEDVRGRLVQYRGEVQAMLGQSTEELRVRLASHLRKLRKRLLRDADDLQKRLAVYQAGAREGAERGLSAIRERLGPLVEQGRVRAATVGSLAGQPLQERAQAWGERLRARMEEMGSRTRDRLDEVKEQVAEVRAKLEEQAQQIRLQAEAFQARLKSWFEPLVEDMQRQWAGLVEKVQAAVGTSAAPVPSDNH

| Protein | apoE fragmentation by western blot in brains of PCSK1 null, NSE-apoE4 pups | apoE fragmentation in NSE-apoE4 primary neurons after shRNA knockdown | apoE fragmentation in PCSK1 null primary neurons | apoE fragmentation after PCSK2 shRNA in PCSK1 null and PCSK1 WT primary neurons |
| --- | --- | --- | --- | --- |
| B1 | a significant decrease in apoE fragmentation was observed in PCSK1 null, NSE-apoE4 brains compared to that of PCSK1 WT, NSE-apoE4 brains | knocking down either PCSK1 or PCSK2 in NSE-apoE4 primary neurons decreased apoE fragmentation | A decrease of apoE fragmentation was observed in PCSK1 null primary neurons compared to PCSK1 wild-type (WT) neurons |  |
| B2 |  | knocking down either PCSK1 or PCSK2 in NSE-apoE4 primary neurons decreased apoE fragmentation |  | PCSK2 shRNAs or 7B2 shRNAs decrease apoE fragmentation in PCSK1 null, primary neurons as well as in PCSK1 WT primary neurons |
